Test results: PMC7870846, “Incorporation of sensing modalities into de novo designed fluorescence-activating proteins” (Nature Communications, 2021)

What was measured:
[1] = Photophysical characterization: absorbance, excitation/emission spectra, extinction coefficients, quantum yields; assay type: physicochemical
Description: Protein preparation: mFAP2a, mFAP2b, and mFAP10 were produced by large-scale protein purification and SEC purification, and dialyzed overnight into DPBS that was adjusted to pH 7.40 using NaOH.
Chromophore preparation: DFHBI (Lucerna) and DFHBI-1T (Lucerna) were dissolved to 20.0 mM in 100% DMSO, and diluted in DPBS (pH 7.40) to measure absorbances on a Jasco V-750 spectrophotometer at peak absorbance wavelengths (417 nm for DFHBI and 422 nm for DFHBI-1T). Following background subtraction of identical buffer without chromophore, Beer’s Law was used to calculate the molar chromophore concentrations of the stock solutions using previously reported extinction coefficients.
Preparation of protein–chromophore complexes: For quantum yield measurements, 1.00 μM, 836 nM, or 919 nM chromophore solutions in DPBS (pH 7.40) at 4.00 mL final volumes were prepared for the following eight conditions: DFHBI only, DFHBI-1T only, 43.5 µM 6xHis-mFAP10 with DFHBI, 43.5 µM 6xHis-mFAP10 with DFHBI-1T, 134 μM 6xHis-mFAP2a with DFHBI, 134 μM 6xHis-mFAP2a with DFHBI-1T, 206 μM 6xHis-mFAP2b with DFHBI, and 206 μM 6xHis-mFAP2b with DFHBI-1T.
Extinction coefficients: Absorbance spectra of protein–chromophore complexes were first measured with a Thermo Scientific BioMate 3S UV–Vis Spectrophotometer (1 nm interval, 800 nm min^−1). The extinction coefficients were then calculated using Beer’s Law:12 A=ε⋅b⋅c, where A is peak absorbance, ε is extinction coefficient, b is path length (1 cm), and c is concentration (1.00 μM, 836 nM, or 919 nM).
Relative quantum yield: A Perkin-Elmer LS-B Luminescence Spectrophotometer (10 nm bandwidth, 1 nm interval, 100 nm min^−1) was used. The fluorescence emission spectra of the protein–chromophore complexes (in DPBS, pH 7.40) and reference dye Acridine Yellow G (in methanol) were first obtained, and the quantum yield was then calculated using the equation[53]:13 ϕc=ϕr⋅1−10^−Ar(λex)/1−10^−Ac(λex)⋅∫Fc(λ)⋅dλ/∫Fr(λ)⋅dλ⋅nc2/nr2, where ϕ is quantum yield, A(λex) is absorbance at the excitation wavelength λex ( λex = 440 nm), F is fluorescence emission, n is refractive index of the solution (1.3350 for DPBS at pH 7.40 and 1.3284 for methanol), and the subscripts “c” and “r” refer to the protein–chromophore complex measured and the reference dye, respectively. […]
Absolute quantum yield: An integrating sphere instrument (Hamamatsu C9920-12) (6 nm excitation bandwidth, 1 nm interval) and a high-sensitivity photonic multi-channel analyzer (Hamamatsu C10027-01) were used to measure a light emission spectrum. Absolute quantum yields were measured for solutions of protein–chromophore complexes in DPBS (pH 7.40) in which ≥95% of the total chromophore was occupying the protein-binding pocket (Table 1). […]

[2] = Ca2+-responsive mFAP Ca2+ titrations; assay type: binding; conditions: Ca2+ titration with excess DFHBI
Method in brief: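 Purified protein at 500 nM with 5.00 μM DFHBI titrated over eleven 10-fold CaCl2 dilutions plus a no-Ca2+ condition in high-salt Tev cleavage buffer; endpoint fluorescence at ex 484/em 508 nm, protein-free background subtracted. Triplicate means fit to a single-site isotherm, Hill coefficient 1, for Kd.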

B1: mFAP2b: mFAP2.5 with V67I, "b" for bright (protein)
chain: SRAAQLLPGTWQVTMTNEDGQTSQGQWHFQPRSPYTMDIVAQGTISDGRPIVGYGKATVKTPDTLDIDITYPSLGNIKAQGQITMDSPTQFKWDATTKGENDFHGRLTGTLQRQE
Question: Which “brighter fluorescence with DFHBI than DFHBI-1T” value [1] does the source give for B1 here?
Answer: ~ 30 fold

Question: What about the “Ca2+-responsiveness / allostery between DFHBI and Ca2+ binding” value [2] of the same molecule?
Answer: lack of Ca^2+-responsiveness
